In the Immune Epitope Database (IEDB):

How the values were obtained:
HLA-A*02:01 [1] = experiment: IEDB peptide-MHC binding, purified MHC/competitive/radioactivity; filed as Kd, often an IC50 or EC50 that approximates it; ≥ and ≤ were set here for values at or beyond the usual limits of such assays
HLA-A*02:06 = experiment: as above
HLA-A*02:17 = experiment: as above
HLA-A*02:03 [2] = experiment: as above
HLA-B*15:17 [3] = experiment: IEDB peptide-MHC binding, purified MHC/competitive/fluorescence; filed as Kd, often an IC50 or EC50 that approximates it; ≥ and ≤ were set here for values at or beyond the usual limits of such assays; conditions: source organism: Influenza A virus (A/swine/Italy/1513-1/1998(H1N1))
HLA-B*39:01 = experiment: as above
HLA-A*31:01 [4] = experiment: as above; conditions: source organism: Influenza A virus (A/swine/Italy/1513-1/1998(H1N1))
HLA-B*57:01 [5] = experiment: as above
HLA-B*51:01 = experiment: as above
HLA-A*02:19 = experiment: as above
HLA-A*68:02 [6] = experiment: as above; conditions: source organism: Influenza A virus (A/swine/Italy/1513-1/1998(H1N1))
HLA-B*18:01 [7] = experiment: as above
HLA-A*26:01 [8] = experiment: as above
HLA-B*15:01 [9] = experiment: as above
HLA-A*02:12 = experiment: as above
HLA-B*27:03 = experiment: as above
HLA-A*24:03 = experiment: as above
HLA-A*02:03 [10] = experiment: as above; conditions: source organism: Influenza A virus (A/swine/Italy/1513-1/1998(H1N1))
HLA-A*69:01 [11] = experiment: as above; conditions: source organism: Influenza A virus (A/swine/Italy/1513-1/1998(H1N1))
HLA-B*46:01 [12] = experiment: as above
HLA-A*02:11 = experiment: as above; conditions: source organism: Vibrio parahaemolyticus K5030
HLA-A*02:01 [13] = experiment: as above
HLA-A*03:01 [14] = experiment: as above; conditions: source organism: Vibrio parahaemolyticus K5030
HLA-A*29:02 = experiment: as above; conditions: source organism: Vibrio parahaemolyticus K5030
HLA-C*05:01 = experiment: IEDB peptide-MHC binding, purified MHC/direct/fluorescence; filed as Kd, often an IC50 or EC50 that approximates it; ≥ and ≤ were set here for values at or beyond the usual limits of such assays
HLA-B*15:17 [15] = experiment: as above; conditions: source organism: Marburg virus - Musoke, Kenya, 1980
HLA-A*31:01 [16] = experiment: as above; conditions: source organism: Marburg virus - Musoke, Kenya, 1980
HLA-A*02:01 [17] = experiment: as above; conditions: source organism: Marburg virus - Musoke, Kenya, 1980
HLA-B*57:01 [18] = experiment: as above; conditions: source organism: Marburg virus - Musoke, Kenya, 1980
HLA-A*03:01 [19] = experiment: as above; conditions: source organism: Marburg virus - Musoke, Kenya, 1980
HLA-B*07:02 = experiment: as above; conditions: source organism: Marburg virus - Musoke, Kenya, 1980
HLA-B*40:01 = experiment: as above; conditions: source organism: Marburg virus - Musoke, Kenya, 1980
HLA-A*01:01 = experiment: as above; conditions: source organism: Marburg virus - Musoke, Kenya, 1980
HLA-A*26:02 = experiment: as above; conditions: source organism: Ravn virus - Ravn, Kenya, 1987
HLA-A*68:02 [20] = experiment: as above; conditions: source organism: Marburg virus - Musoke, Kenya, 1980
HLA-A*11:01 = experiment: as above; conditions: source organism: Marburg virus - Musoke, Kenya, 1980
HLA-B*58:01 = experiment: as above; conditions: source organism: Marburg virus - Musoke, Kenya, 1980
HLA-B*18:01 [21] = experiment: as above; conditions: source organism: Marburg virus - Musoke, Kenya, 1980
HLA-A*26:01 [22] = experiment: as above; conditions: source organism: Ravn virus - Ravn, Kenya, 1987
HLA-B*15:01 [23] = experiment: as above; conditions: source organism: Marburg virus - Musoke, Kenya, 1980
HLA-B*08:03 = experiment: as above; conditions: source organism: Ravn virus - Ravn, Kenya, 1987
HLA-B*27:05 = experiment: as above; conditions: source organism: Marburg virus - Musoke, Kenya, 1980
HLA-B*48:01 = experiment: as above; conditions: source organism: Marburg virus - Musoke, Kenya, 1980
HLA-A*69:01 [24] = experiment: as above; conditions: source organism: Marburg virus - Musoke, Kenya, 1980
HLA-B*46:01 [25] = experiment: as above; conditions: source organism: Marburg virus - Musoke, Kenya, 1980
HLA-B*08:01 [26] = experiment: as above; conditions: source organism: Ravn virus - Ravn, Kenya, 1987
HLA-A*02:02 = experiment: IEDB peptide-MHC binding, purified MHC/competitive/radioactivity; filed as Kd, often an IC50 or EC50 that approximates it; ≥ and ≤ were set here for values at or beyond the usual limits of such assays; conditions: source organism: Vaccinia virus Copenhagen
HLA-B*08:01 [27] = experiment: as above; conditions: source organism: Dengue virus 1 Brazil/97-11/1997
[28] = source organism: Dengue virus 4 Philippines/H241/1956
[29] = source organism: Influenza A virus (A/swine/Italy/1513-1/1998(H1N1))
[30] = source organism: Vibrio parahaemolyticus K5030
[31] = source organism: Vaccinia virus Copenhagen
[32] = source organism: Dengue virus 1 Singapore/S275/1990

GLYPLAIPV showed a Kd (HLA-A*02:01 [1]; [28]) of 0.00106 µM, a Kd (HLA-A*02:06; [28]) of 0.125 µM and a Kd (HLA-A*02:17; [28]) of 0.0538 µM. For the same sequence, the Kd (HLA-A*02:03 [2]; [28]) was 0.00042 µM.

MMWEINGPK was tested, and the Kd (HLA-B*15:17 [3]) was no less than 20 µM, the Kd (HLA-B*39:01; [29]) was no less than 20 µM and the Kd (HLA-A*31:01 [4]) was 0.0751 µM. The Kd (HLA-B*57:01 [5]; [29]) was no less than 20 µM, the Kd (HLA-B*51:01; [29]) was no less than 20 µM and the Kd (HLA-A*02:19; [29]) was no less than 20 µM. It also gave a Kd (HLA-A*68:02 [6]) of no less than 20 µM, a Kd (HLA-B*18:01 [7]; [29]) of no less than 20 µM and a Kd (HLA-A*26:01 [8]; [29]) of no less than 20 µM. For the same sequence, the Kd (HLA-B*15:01 [9]; [29]) was no less than 20 µM, the Kd (HLA-A*02:12; [29]) was no less than 20 µM and the Kd (HLA-B*27:03; [29]) was no less than 20 µM. It also gave a Kd (HLA-A*24:03; [29]) of no less than 20 µM, a Kd (HLA-A*02:03 [10]) of no less than 20 µM and a Kd (HLA-A*69:01 [11]) of no less than 20 µM. For the same sequence, the Kd (HLA-B*46:01 [12]; [29]) was no less than 20 µM.

For WLGDVWQEK, the Kd (HLA-B*39:01; [30]) was no less than 20 µM, the Kd (HLA-A*02:11) was 0.0251 µM and the Kd (HLA-A*02:01 [13]; [30]) was no less than 20 µM. For the same sequence, the Kd (HLA-B*57:01 [5]; [30]) was no less than 20 µM, the Kd (HLA-B*51:01; [30]) was no less than 20 µM and the Kd (HLA-A*03:01 [14]) was no less than 20 µM. The Kd (HLA-A*02:19; [30]) was no less than 20 µM, the Kd (HLA-B*18:01 [7]; [30]) was no less than 20 µM and the Kd (HLA-A*26:01 [8]; [30]) was no less than 20 µM. For the same sequence, the Kd (HLA-B*15:01 [9]; [30]) was no less than 20 µM, the Kd (HLA-A*29:02) was no less than 20 µM and the Kd (HLA-A*02:12; [30]) was no less than 20 µM. For the same sequence, the Kd (HLA-B*27:03; [30]) was no less than 20 µM, the Kd (HLA-A*24:03; [30]) was no less than 20 µM and the Kd (HLA-B*46:01 [12]; [30]) was no less than 20 µM.

Sequence FPSVFINPI has a Kd (HLA-C*05:01; [31]) of no less than 20 µM.

QVGIFLICK was tested, and the Kd (HLA-B*15:17 [15]) was no less than 20 µM, the Kd (HLA-A*31:01 [16]) was no less than 20 µM and the Kd (HLA-A*02:01 [17]) was no less than 20 µM. For the same sequence, the Kd (HLA-B*57:01 [18]) was no less than 20 µM, the Kd (HLA-A*03:01 [19]) was no less than 20 µM and the Kd (HLA-B*07:02) was no less than 20 µM. The Kd (HLA-B*40:01) was no less than 20 µM, the Kd (HLA-A*01:01) was no less than 20 µM and the Kd (HLA-A*26:02) was no less than 20 µM. It also gave a Kd (HLA-A*68:02 [20]) of no less than 20 µM, a Kd (HLA-A*11:01) of 2.8 µM and a Kd (HLA-B*58:01) of no less than 20 µM. It also gave a Kd (HLA-B*18:01 [21]) of no less than 20 µM, a Kd (HLA-A*26:01 [22]) of no less than 20 µM and a Kd (HLA-B*15:01 [23]) of no less than 20 µM. It also gave a Kd (HLA-B*08:03) of no less than 20 µM, a Kd (HLA-B*27:05) of no less than 20 µM and a Kd (HLA-B*48:01) of no less than 20 µM. For the same sequence, the Kd (HLA-A*69:01 [24]) was no less than 20 µM, the Kd (HLA-B*46:01 [25]) was no less than 20 µM and the Kd (HLA-B*08:01 [26]) was no less than 20 µM.

FVDTMSIYI was tested, and the Kd (HLA-A*02:01 [13]; source organism: Variola virus) was 0.0004 µM, the Kd (HLA-A*02:06; [31]) was 0.0161 µM and the Kd (HLA-A*02:03 [2]; [31]) was 0.37 µM. The Kd (HLA-A*02:02) was 0.0207 µM and the Kd (HLA-C*05:01; source organism: Variola virus) was 0.002 µM.

In the case of ILLMLVTPSM, the Kd (HLA-A*02:01 [1]; [32]) is reported as 0.102 µM, the Kd (HLA-A*02:17; [32]) is reported as 1.11 µM and the Kd (HLA-B*08:01 [27]) is reported as 0.16 µM.
